We go through 1 molecule from publication PMC7515959, “Imaging angiogenesis in patients with head and neck squamous cell carcinomas by [^68Ga]Ga-DOTA-E-[c(RGDfK)]2 PET/CT” (European Journal of Nuclear Medicine and Molecular Imaging, 2020).

One data set is described as follows: clinical. The following applies: human, in vivo, iv, SUVmax tumour. On the procedure: (§1) Included patients had no restrictions in food or medication intake. ^68Ga-RGD was administered intravenously using a slow bolus injection of 8 ml over 40 s (200 ± 29 MBq; range 119–218 MBq, 42 ± 8 μg; range 34–58 μg). The net injected dose was calculated by measuring the syringe before and after ^68Ga-RGD administration using a dedicated dose calibrator (VDS-405, Comecer, Joure, The Netherlands). Patients were monitored for (severe) adverse events according to the Common Terminology Criteria for Adverse Events, version 4.03. Venous blood samples at 1, 2, 5, 10, 30 and 90 min after injection were taken for pharmacokinetic and safety analysis. The concentration of ^68Ga-RGD in the blood samples (Bq/ml) was calculated by gamma counter (Wizard Detector Gamma Counter, PerkinElmer Inc., Waltham, MA, USA) while simultaneously measuring 1% standards. Safety analysis included a complete blood count test and assessment of kidney and liver function by measuring the eGFR (MDRD), total bilirubin and aspartate aminotransferase and alanine aminotransferase levels.
(§2) Five patients underwent three static whole-body PET/CT at 30, 60 and 90 min post injection on a Biograph 40 mCT scanner (Siemens Medical Solutions, Knoxville TN, USA) equipped with a dual-slice CT for 4 min of PET data per bed position, with bed positions from the base of the skull to trochanter major. For each PET/CT image, two image reconstructions were used, with a TrueX algorithm with point spread function (PSF) and time of flight (TOF) measurements, using three iterations, 21 subsets, matrix size 256 × 256 (pixel spacing of 3.2 mm) or 200 × 200 (pixel spacing of 4.07 mm), full width at half maximum (FWHM) of 5 mm. Post-processing was performed using a 3D Gaussian filter kernel, 7.5 or 3 mm. The other five patients underwent 60 min dynamic ^68Ga-RGD PET/CT starting at start of injection, of the head and neck region (15 cm FOV), to obtain time–activity curves in malignant lesions. These images were reconstructed in 33 frames ([…], 10 × 5 s, 3 × 10 s, 2 × 15 s, 5 × 30 s, 5 × 120 s, 5 × 300 s and 2 × 600 s). For all patients, a low-dose CT scan was acquired for attenuation correction and anatomical reference, with an automatically modulated X-ray tube voltage and current (100 kV, 30 mA) using Care kV and Care Dose4D (Siemens Healthcare), 512 × 512 voxels; 0.98 pixel spacing; 3 mm slice thickness; 1 pitch. The CT images for anatomical reference were reconstructed with a B31f convolution kernel, slice thickness 5 mm.
(§3) All ^68Ga-RGD PET/CT scans were evaluated by two experienced nuclear medicine physicians (WJGO, EHJGA) on a dedicated workstation (Oasis software, Segami Corporation, Columbia, MD, USA) with a PET/CT viewer for automatic image registration. A volume-of-interest (VOI) around the tumour mass was manually drawn to obtain a maximum standardised uptake value (SUVmax) of the tumour area—drawn on the static PET/CT image acquired 60 min post injection—and to determine the 41% SUVmax isocontour and SUVpeak (highest mean SUV value of 1 cm^3) within this tumour volume. The same analysis was applied on the dynamic imaging series, in which a reconstructed frame of 4 min (56–60 min p.i.) was extracted from the dynamic imaging series to obtain a static image for tumour volume delineation. The dynamic imaging series were also used to obtain time–activity curves using the PMOD Medical Imaging Program version 3.15 (PMOD technologies LLC, Zürich, Switzerland). Curves were estimated for both tumour lesions and background tissue. Tumour delineation was based on the evaluation in Oasis (Oasis software, Segami Corporation, Columbia, MD, USA), drawn on the last frame of the PET series, and subsequently copied to the other frames. For time–activity curves of the muscle, a VOI of 1.5 ml was defined in dorsolateral musculature (contralateral to the tumour) using the CT images and subsequently copied to the dynamic dataset. […]

The target of data set [1] is T1, αvβ3 integrin (Homo sapiens, UniProt P05106+P06756).
T1 construct: integrin αvβ3 predominantly expressed in endothelial cells of tumour-associated blood vessels; from tissue; host or cells: tumour lesions and lymph nodes of living patients with oral squamous cell carcinoma (in vivo PET/CT)
Put plainly: clinical. The note with it: in vivo. As to the method:
as §1, §2, §3

The subject of data set [2] is T2, αvβ3 integrin.
T2 construct: integrin αvβ3 predominantly expressed in endothelial cells of tumour-associated blood vessels; from tissue; host or cells: tumour lesions and lymph nodes of living patients with oral squamous cell carcinoma (in vivo PET/CT)
Nature of the data set: clinical. The note with it: human, in vivo, iv, 200 MBq, total radioactivity. On the procedure:
as §1, §2, §3

On the set-up of data set [3]: species or system human. The following applies: in vivo. As to the method:
as §1, with “[…] The biological half-life of ^68Ga-RGD was calculated using bi-exponential regression” for “Safety”, “in MATLAB version R2014b (MathWorks, Natick, MA, USA). The analyses of optimal imaging time point and uptake values were analysed using SPSS Statistics, version 22.0.0.1 (IBM), with” for “included”, “one-way ANOVA followed by a Bonferroni post hoc” for “complete blood count”, “to adjust for multiple comparisons. […]” for “and assessment of kidney and liver function by measuring the eGFR (MDRD), total bilirubin and aspartate aminotransferase and alanine aminotransferase levels.”

Details of data set [4]: species or system human. The note with it: in vivo. On the procedure:
Five patients underwent three static whole-body PET/CT at 30, 60 and 90 min post injection on a Biograph 40 mCT scanner (Siemens Medical Solutions, Knoxville TN, USA) equipped with a dual-slice CT for 4 min of PET data per bed position, with bed positions from the base of the skull to trochanter major. For each PET/CT image, two image reconstructions were used, with a TrueX algorithm with point spread function (PSF) and time of flight (TOF) measurements, using three iterations, 21 subsets, matrix size 256 × 256 (pixel spacing of 3.2 mm) or 200 × 200 (pixel spacing of 4.07 mm), full width at half maximum (FWHM) of 5 mm. Post-processing was performed using a 3D Gaussian filter kernel, 7.5 or 3 mm. […]
All ^68Ga-RGD PET/CT scans were evaluated by two experienced nuclear medicine physicians (WJGO, EHJGA) on a dedicated workstation (Oasis software, Segami Corporation, Columbia, MD, USA) with a PET/CT viewer for automatic image registration. […]
Numerical data are presented as mean ± standard deviation (SD). […] The biological half-life of ^68Ga-RGD was calculated using bi-exponential regression analysis in MATLAB version R2014b (MathWorks, Natick, MA, USA). The analyses of optimal imaging time point and uptake values were analysed using SPSS Statistics, version 22.0.0.1 (IBM), with a one-way ANOVA followed by a Bonferroni post hoc test to adjust for multiple comparisons. […]
This is another data set of the same source.

Details of data set [5]: species or system human. The note with it: in vivo. As to the method: as §1
The source holds these as a separate data set.

T1 sequence (P06756 31-889 limits assumed): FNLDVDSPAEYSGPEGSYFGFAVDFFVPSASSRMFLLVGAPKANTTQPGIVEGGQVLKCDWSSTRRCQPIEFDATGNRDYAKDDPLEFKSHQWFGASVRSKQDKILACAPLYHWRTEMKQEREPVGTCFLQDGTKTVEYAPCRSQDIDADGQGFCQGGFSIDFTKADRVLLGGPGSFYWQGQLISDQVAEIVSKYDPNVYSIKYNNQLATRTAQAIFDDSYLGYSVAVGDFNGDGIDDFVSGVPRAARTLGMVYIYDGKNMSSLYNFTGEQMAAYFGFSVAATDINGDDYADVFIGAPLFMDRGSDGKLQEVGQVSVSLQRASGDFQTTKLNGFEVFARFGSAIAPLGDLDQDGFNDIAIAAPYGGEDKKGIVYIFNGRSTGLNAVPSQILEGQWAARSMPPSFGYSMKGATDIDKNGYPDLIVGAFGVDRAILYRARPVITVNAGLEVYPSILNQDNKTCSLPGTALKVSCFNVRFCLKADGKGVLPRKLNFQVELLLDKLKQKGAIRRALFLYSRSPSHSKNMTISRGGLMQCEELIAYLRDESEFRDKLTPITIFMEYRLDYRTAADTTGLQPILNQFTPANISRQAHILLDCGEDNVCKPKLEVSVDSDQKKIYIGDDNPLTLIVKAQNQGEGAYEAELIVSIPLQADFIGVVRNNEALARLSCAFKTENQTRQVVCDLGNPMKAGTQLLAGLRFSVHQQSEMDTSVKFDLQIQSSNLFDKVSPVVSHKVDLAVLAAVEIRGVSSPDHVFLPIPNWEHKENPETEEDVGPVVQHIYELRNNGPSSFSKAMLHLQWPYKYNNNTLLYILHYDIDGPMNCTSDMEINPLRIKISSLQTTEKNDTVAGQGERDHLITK
T1 sequence (P06756 891-1048 limits assumed): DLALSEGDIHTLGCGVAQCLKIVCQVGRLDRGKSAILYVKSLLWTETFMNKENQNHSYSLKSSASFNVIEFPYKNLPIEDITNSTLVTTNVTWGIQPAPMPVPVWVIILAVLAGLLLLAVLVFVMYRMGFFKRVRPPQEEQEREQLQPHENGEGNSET
T1 sequence (P05106 27-788): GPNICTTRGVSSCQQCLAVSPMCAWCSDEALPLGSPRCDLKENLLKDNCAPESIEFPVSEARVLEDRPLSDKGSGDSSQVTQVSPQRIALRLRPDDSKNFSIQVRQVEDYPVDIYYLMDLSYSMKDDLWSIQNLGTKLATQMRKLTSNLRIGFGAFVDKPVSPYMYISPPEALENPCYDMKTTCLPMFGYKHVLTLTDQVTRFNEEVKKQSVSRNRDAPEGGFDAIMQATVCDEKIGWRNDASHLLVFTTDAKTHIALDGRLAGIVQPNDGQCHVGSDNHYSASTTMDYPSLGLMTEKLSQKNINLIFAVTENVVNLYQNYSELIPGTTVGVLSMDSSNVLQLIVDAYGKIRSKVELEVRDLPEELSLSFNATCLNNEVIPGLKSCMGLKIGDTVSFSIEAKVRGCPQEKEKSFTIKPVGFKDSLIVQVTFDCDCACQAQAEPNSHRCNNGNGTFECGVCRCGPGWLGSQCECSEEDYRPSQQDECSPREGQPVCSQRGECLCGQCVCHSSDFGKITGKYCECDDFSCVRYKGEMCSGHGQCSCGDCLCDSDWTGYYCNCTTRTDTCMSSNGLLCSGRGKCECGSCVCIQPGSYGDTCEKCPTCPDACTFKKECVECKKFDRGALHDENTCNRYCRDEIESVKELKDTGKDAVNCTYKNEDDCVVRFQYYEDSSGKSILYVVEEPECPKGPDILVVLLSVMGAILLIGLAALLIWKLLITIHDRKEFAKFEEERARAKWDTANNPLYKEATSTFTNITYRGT

Take `N=C(N)NCCC[C@@H]1NC(=O)[C@H](CCCCNC(=O)CC[C@H](NC(=O)CN2CCN(CC(=O)O)CCN(CC(=O)O)CCN(CC(=O)O)CC2)C(=O)NCCCC[C@@H]2NC(=O)[C@@H](Cc3ccccc3)NC(=O)[C@H](CC(=O)O)NC(=O)CNC(=O)[C@H](CCCNC(=N)N)NC2=O)NC(=O)[C@@H](Cc2ccccc2)NC(=O)[C@H](CC(=O)O)NC(=O)CNC1=O` [^68Ga-RGD, [^68Ga]Ga-DOTA-E-[c(RGDfK)]2, metal not drawn]: the SUV at 1 h in “clinical” amounted to 6.5 SUV. In the data set with αvβ3 integrin [1], the “SUVmax in lymph nodes with radiotracer uptake, range” value was 1.8-7.6; the “time after injection at which plateau phase was reached in tumour tissue” value worked out at 15 min; the “time after injection at which tracer accumulation in tumour tissue plateaued” value was 10 min; the “tumour-to-muscle tissue ratio (mean)” value amounted to 6.4 ± 0.7. For the same molecule, the SUV in the data set on αvβ3 integrin [2] (mean SUVmax in lymph nodes with radiotracer uptake) was 4.4 ± 2.3 SUV. Also, in the data set with αvβ3 integrin [2] (mean SUVmax in tumour tissue), the SUV at 0.5 h came to 5.7 ± 0.8 SUV, the SUV at 1 h amounted to 5.5 ± 1.2 SUV and the SUV at 1.5 h came out at 4.8 ± 1.2 SUV. In data set [3], the elimination half-life came to 23.0 ± 2.3 min and the “uptake by blood cells (whole blood versus plasma concentration)” value was “not taken up by the blood cells”. Besides, the “distribution half-life (t1/2α)” value in data set [4] came out at 0.14 ± 0.07 min. Moreover, in data set [5], the laboratory values entry is reported as “within normal ranges”; the “vital signs and (serious) adverse events” value was “no changes in vital signs nor any (serious) adverse events”.
